Reference: patent US20240174744A1 (SCIRHOM, published 2024)
Residue numbers refer to the chain shown, from its start.

T1: hiR1-FL-WT-T7 (human iRhom1 full length wild type C-terminally tagged with 3 consecutive copies of the T7 … (human, UniProt Q96CC6 1-855))
T1 construct: also called human iRhom1 variant expressed by MEF-DKO-hiR1-FL-WT-T7 cells
T1 sequence: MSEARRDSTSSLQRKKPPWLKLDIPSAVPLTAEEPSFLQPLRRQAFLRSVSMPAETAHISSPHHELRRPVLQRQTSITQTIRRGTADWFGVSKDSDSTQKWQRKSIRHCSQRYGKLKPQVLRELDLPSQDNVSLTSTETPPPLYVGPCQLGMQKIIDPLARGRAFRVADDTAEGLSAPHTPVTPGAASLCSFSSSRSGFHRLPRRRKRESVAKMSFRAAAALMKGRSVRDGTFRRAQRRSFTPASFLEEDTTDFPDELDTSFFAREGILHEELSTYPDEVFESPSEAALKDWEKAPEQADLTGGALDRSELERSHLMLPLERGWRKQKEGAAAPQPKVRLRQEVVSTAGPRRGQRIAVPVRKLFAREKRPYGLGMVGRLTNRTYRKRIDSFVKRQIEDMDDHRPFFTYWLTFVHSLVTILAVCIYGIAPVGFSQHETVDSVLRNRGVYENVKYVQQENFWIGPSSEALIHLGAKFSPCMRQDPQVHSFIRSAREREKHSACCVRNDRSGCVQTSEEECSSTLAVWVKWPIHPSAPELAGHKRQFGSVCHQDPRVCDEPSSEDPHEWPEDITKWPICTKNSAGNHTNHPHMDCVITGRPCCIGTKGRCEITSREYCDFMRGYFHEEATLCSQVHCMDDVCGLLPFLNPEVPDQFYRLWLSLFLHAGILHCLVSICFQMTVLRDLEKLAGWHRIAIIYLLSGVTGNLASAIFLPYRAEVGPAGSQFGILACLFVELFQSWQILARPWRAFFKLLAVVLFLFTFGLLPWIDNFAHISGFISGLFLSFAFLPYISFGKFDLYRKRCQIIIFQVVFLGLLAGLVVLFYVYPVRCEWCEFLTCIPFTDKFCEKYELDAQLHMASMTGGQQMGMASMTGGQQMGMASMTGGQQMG

T2: hiR2-FL-P533-T7 (human iRhom2 full length with deletion of P533, 3 x T7 tag) (human, UniProt Q6PJF5 1-856)
T2 construct: The change is a deletion of one residue, not a substitution
T2 sequence: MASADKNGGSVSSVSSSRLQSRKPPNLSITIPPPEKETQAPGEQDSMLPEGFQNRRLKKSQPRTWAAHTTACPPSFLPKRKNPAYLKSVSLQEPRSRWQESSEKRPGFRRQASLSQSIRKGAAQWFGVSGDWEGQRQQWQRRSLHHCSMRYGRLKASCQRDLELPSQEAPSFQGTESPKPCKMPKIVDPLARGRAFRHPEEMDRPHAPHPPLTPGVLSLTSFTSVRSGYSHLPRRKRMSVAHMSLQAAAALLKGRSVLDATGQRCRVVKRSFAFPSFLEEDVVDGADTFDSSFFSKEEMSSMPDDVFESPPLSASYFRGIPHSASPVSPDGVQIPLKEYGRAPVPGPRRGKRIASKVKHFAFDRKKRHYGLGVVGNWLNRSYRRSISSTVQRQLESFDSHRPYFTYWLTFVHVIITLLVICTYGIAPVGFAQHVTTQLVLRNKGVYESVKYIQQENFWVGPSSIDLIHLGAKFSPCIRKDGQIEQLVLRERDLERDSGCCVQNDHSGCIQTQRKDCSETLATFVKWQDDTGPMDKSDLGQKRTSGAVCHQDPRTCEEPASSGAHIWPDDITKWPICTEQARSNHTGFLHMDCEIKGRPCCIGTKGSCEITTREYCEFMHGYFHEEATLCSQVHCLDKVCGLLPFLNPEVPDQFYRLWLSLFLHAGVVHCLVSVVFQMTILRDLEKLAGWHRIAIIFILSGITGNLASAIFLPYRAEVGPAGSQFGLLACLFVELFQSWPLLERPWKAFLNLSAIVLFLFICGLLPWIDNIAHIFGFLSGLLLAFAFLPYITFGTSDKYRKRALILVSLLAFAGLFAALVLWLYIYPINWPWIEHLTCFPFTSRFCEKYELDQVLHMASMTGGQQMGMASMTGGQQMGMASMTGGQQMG

B1: antibody 50 (antibody, V domains shown)
VH: QVQLQQSGAELVRPGASVKVSCKASGYAFSNYLIEWVKQRPGQGLEWIGVINPGSGFTKYNEKFKGKATLTADKSSSTAYMQLSSLTSEDSAVYFCARGLYRAMDYWGQGTSVTVSS
VL: DIQMTQSPASQSASLGESVTITCLASQTIGTWLAWYQQKPGKSPQLLIYAAASLADGVPSRFSGGGSGTKFSFKISSLQAEDFVNYYCQQIYSTPYTFGGGTKLEIK
notes: Mouse IgG, kappa light chain; also called clone #50; purified antibody 50
B2: antibody 34 (antibody, V domains shown)
VH: QVTLKESGPGILQPSQTLSLTCSFSGFSLSTFSLGVGWIRQSSGKGLEWLAHIWWDDEKYYNPALKSRLTISKDTSKNQVFLKIANVDAADTATYYCARAYYSKSYYALDYWGQGTSVTVSS
VL: DIQMTQSPSSLSASLGERVSLTCRASQEISGYLSWLQQKPDGTIKRLIYAASTLDSGVPKRFSGSRSGSDYSLAISSLESEDFADYYCLQYANFPFTFGSGTKLEIK
notes: Mouse IgG, kappa light chain; also called clone #34; m34
B3: antibody 43 (antibody, V domains shown)
VH: QVALKESGPGILQPSQTLSLTCSFSGFSLSTFGMGVGWIRQSSGKGLEWLANIWWDDDKYYNPALKSRLTISKDASKNQAFLKIANVDTADTATYYCARIGNYGSNYWYFDVWGTGTTVTVSS
VL: QIVLTQSPAIMSASPGERVTMTCSANSRISYMYWYQQKPGSSPRLLIYDTSNLASGVPVRFSGSGSGTSYSLTISRMEAEDAATYNCQQWSSYPLTFGAGTKLELK
notes: Mouse IgG, kappa light chain; also called clone #43
B4: antibody 44 (antibody, V domains shown)
VH: B3 VH with A3T, S42P, G44E, N52H, A75T, A80I, A85T, D91E, A98S
VL: QIVLTQSPAVMSASPGEKVTMTCTASSSVYYMYWYQQTPGSSPRLLIYDTSNLASGVPVRFSGSGSGTSYSLTISRMEAEDAATYYCQQWNTYPLTFGAGTKLELK
notes: Mouse IgG, kappa light chain; also called clone #44; m44
B5: antibody 42 (antibody, V domains shown)
VH: B3 VH with A3T, F24L, M34R, S42P, N52H, D58E, A75T, A80V, K83R, G101Q
VL: B3 VL with Q1L, R18K, S24G, N26T, Y33F, L45V, M77V, A82V, N86Y, S91N
notes: Mouse IgG, kappa light chain; also called clone #42; m42
B6: antibody 5 (antibody, V domains shown)
VH: B3 VH with A3T, S42P, N52H, D58E, P63S, D74A, A75T, G101S, D111N
VL: QVVLTQSPALMSASPGEKVTMTCSAGSSVSCMYWYQQKPGSSPRVLIYDTSNLASGVPARFTGSGSGTSYSLTISRMEAEDAASYYCQQWNSYPLTFGAGTKLELK
notes: Mouse IgG, kappa light chain; also called clone #5; purified antibody 5
B7: antibody 22 (antibody, V domains shown)
VH: B3 VH with A3T, S42P, N52H, D58E, P63S, D74A, A75T, A80V, G101S, D111N
VL: B6 VL with C31Y, S84T
notes: Mouse IgG, kappa light chain; also called clone #22; m22
B8: antibody 16 (antibody, V domains shown)
VH: QVTLKESGPGILQPSQTLSLTCSFSGFSLSTFALGVGWIRQPSGRGLEWLAHIWWDDDKYYNPALKSRLTISKDTSKNHVFLKIANVDTADTATYYCARITTYYYGMDYWGQGTSVTVSS
VL: DIVLSQSPATLSVTPGDSVSLFCRASQSIGNHLHWYQQESHASPRLLIKYASQSISGIPSRFSGSGSGTDFTLSINSVETEDFGMYFCQQSYNWPLTFGAGTKLELK
notes: Mouse IgG, kappa light chain; also called clone #16; m16
B9: antibody 3 (antibody, V domains shown)
VH: QVTLKESGPGILQPSQTLSLTCSFSGFSLTTFAMGIGWVRQPSGKGLEWLAHIWWDGEKYNNPVLKSRLTISKDTSKNQVFLRIANVDTPDTATYYCARISSIYYIIDNWGQGTSVTVSS
VL: B8 VL with S5T, D17H, F22S, G30S, H32N, Q38K, E39K, A42E, A51V
notes: Mouse IgG, kappa light chain; also called clone #3; purified antibody 3

target: T1, hiR1-FL-WT-T7 (human iRhom1 full length …); experiment: FACS on cells of the row human iR1 wild type, vs human iR2 wild type = 100%

Binder	grade of loss of binding vs wild type
B1	3 grade (3 => 95% loss of binding vs wild type)
B2	3 grade (3 => 95% loss of binding vs wild type)
B3	3 grade (3 => 95% loss of binding vs wild type)
B4	3 grade (3 => 95% loss of binding vs wild type)
B5	3 grade (3 => 95% loss of binding vs wild type)
B6	3 grade (3 => 95% loss of binding vs wild type)
B7	3 grade (3 => 95% loss of binding vs wild type)
B8	3 grade (3 => 95% loss of binding vs wild type)
B9	3 grade (3 => 95% loss of binding vs wild type)

target: T2, hiR2-FL-P533-T7 (human iRhom2 full …); experiment: FACS on cells of the row P533-

Binder	binding result
B2	no binding (tested: 3 µg/ml)
B3	no binding (tested: 3 µg/ml)
B4	no binding (tested: 3 µg/ml)
B5	no binding (tested: 3 µg/ml)
B6	no binding (tested: 3 µg/ml)
B7	no binding (tested: 3 µg/ml)
B8	no binding (tested: 3 µg/ml)

target: T1, hiR1-FL-WT-T7 (human iRhom1 full length …); experiment: FACS on cells of the row human iR1 wild type

Binder	binding result
B1	no binding (tested: 3 µg/ml)
B2	no binding (tested: 3 µg/ml)
B3	no binding (tested: 3 µg/ml)
B4	no binding (tested: 3 µg/ml)
B5	no binding (tested: 3 µg/ml)
B6	no binding (tested: 3 µg/ml)
B7	no binding (tested: 3 µg/ml)
B8	no binding (tested: 3 µg/ml)

target: T1, hiR1-FL-WT-T7 (human iRhom1 full length …); experiment: FACS on cells of the row human iR1 wild type, vs human iR2 wild type = 100%; remark: another data set of the same source

Binder	grade of loss of binding vs wild type
B1	3 grade (3 => 95% loss of binding vs wild type)
B2	3 grade (3 => 95% loss of binding vs wild type)
B3	3 grade (3 => 95% loss of binding vs wild type)
B4	3 grade (3 => 95% loss of binding vs wild type)
B5	3 grade (3 => 95% loss of binding vs wild type)
B6	3 grade (3 => 95% loss of binding vs wild type)
B7	3 grade (3 => 95% loss of binding vs wild type)
B8	3 grade (3 => 95% loss of binding vs wild type)
B9	3 grade (3 => 95% loss of binding vs wild type)
